Source: PMC3352945 (The Journal of Cell Biology, 2012)

Experiments:
cpTatC [1] = target: T1, cpTatC (pea (endogenous in pea thylakoids)); assay: radioligand binding
cpTatC [2] = target: T1, cpTatC; assay: co-IP

- Kd (cpTatC [1]): 1.07 nM
- stoichiometry N (cpTatC [1]): 1.27 tOE17 per cpTatC
- stoichiometry N (cpTatC [2]): 0.79 tOE17 per cpTatC
B1: tOE17 V-20F precursor protein (natural protein)
chain: MASAEGDAVAQAGRRAFIGLVATGIVGGALSQAARAETVKTIKIGAPPPPSGGLPGTLNSDQARDFDLPLKERFYLQPLPPAEAAARVKTSAQDIINLKPLIDKKAWPYVQNDLRLRASYLRYDLKTVIASKPKEEKKSLKELTGKLFSTIDDLDHAAKIKSTPEAEKYFAATKDALGDVLAKLG
modifications: [3H]-Leu radiolabel (unlabeled tOE17 used as the chase in the dissociation test)
